For 32 sequences, Kd and IC50 results are on record in the Immune Epitope Database (IEDB).

Assay [1] concerns the target HLA-A*30:02. Kind of assay: IEDB peptide-MHC binding, purified MHC/competitive/radioactivity; filed as Kd, often an IC50 or EC50 that approximates it; ≥ and ≤ were set here for values at or beyond the usual limits of such assays.
Assay [2] deals with HLA-A*23:01. The description is as above.
The target in assay [3] is HLA-A*26:01. The description is as above.
The target in assay [4] is HLA-A*01:01. The description is as above.
The target of assay [5] is HLA-A*24:02. Described as above.
The target in assay [6] is HLA-A*29:02. The description is as above.
Assay [7] deals with HLA-A*02:01. Kind of assay: IEDB peptide-MHC binding, purified MHC/competitive/fluorescence; ≥ and ≤ were set here for values at or beyond the usual limits of such assays.
In assay [8] the target is HLA-A*69:01. The assay is described as follows: IEDB peptide-MHC binding, purified MHC/direct/fluorescence; filed as Kd, often an IC50 or EC50 that approximates it; ≥ and ≤ were set here for values at or beyond the usual limits of such assays.
Assay [9] deals with HLA-A*02:01. The assay is described as above.
Assay [10] addresses HLA-A*02:01. The assay is described as follows: IEDB peptide-MHC binding, purified MHC/competitive/fluorescence; filed as Kd, often an IC50 or EC50 that approximates it; ≥ and ≤ were set here for values at or beyond the usual limits of such assays.
Setting [11] is: source organism: SARS coronavirus Tor2.
The mark [12] stands for this setting: source organism: Mammarenavirus lassaense.
Setting [13] is: source organism: Dengue virus 2 Jamaica/1409/1983.
Where [14] appears, read: source organism: Salmonella enterica subsp. enterica serovar Typhimurium.
[15] abbreviates: source organism: Dengue virus 4 Philippines/H241/1956.
Setting [16] is: source organism: Mycobacterium tuberculosis.
[17] abbreviates: source organism: Lymphocytic choriomeningitis virus (strain Armstrong).
The mark [18] stands for this setting: source organism: Zaire ebolavirus.
[19] abbreviates: source organism: Dengue virus 4 Dominica/814669/1981.
Where [20] appears, read: source organism: Mammarenavirus machupoense.
Where [21] appears, read: source organism: Giardia lamblia ATCC 50803.

Take ADAGFMKQY: the Kd was no less than 46.2 µM in [1] (setting [11]); no less than 77800 nM in assay [2] (setting [11]); no less than 81.5 µM in assay [3] (setting [11]); no less than 87.7 µM in [4] (setting [11]); no less than 77600 nM in assay [5] (setting [11]); 15.3 µM in [6] (setting [11]).

With AGFAAGLTY, the Kd in assay [1] (setting [12]) was 0.178 µM; in assay [2] (setting [12]), no less than 39200 nM; in assay [3] (setting [12]), no less than 61.8 µM; in assay [4] (setting [12]), no less than 38.5 µM; in assay [5] (setting [12]) it was no less than 77500 nM; in [6] (setting [12]), 6.13 µM.

Consider AILGDTAWDF, for which, in assay [2] (setting [13]), the Kd came to 3710 nM.

In turn, ALAPAPAEV displayed a concentration for half-maximal inhibition (IC50) in [7] (source organism: Homo sapiens) of 0.052 µM.

As for ALSMADIFI, the Kd in [8] (setting [14]) was 1080 nM; in [9] (setting [14]) it was 106 nM.

Turning to ALSPPLLLL, in [10] (source organism: Escherichia coli E22), the Kd is 157 nM.

On to AMISLAKKI, for which the Kd in [10] (source organism: Vaccinia virus WR 65-16) amounted to 903 nM.

Take ASEAVNDSRF: in assay [4] (setting [15]), the Kd is no less than 31.4 µM.

In the case of AVGIGLRLV, the values for the Kd in assay [8] (setting [16]) and in assay [9] (setting [16]) were no less than 20000 nM and 128 nM, respectively.

For AWLVHRQWFL, the Kd in [2] (setting [13]) was 97.7 nM.

As to CFANKHAGF, the Kd in assay [1] (setting [11]) is 6.62 µM; in [2] (setting [11]), 105 nM; in assay [3] (setting [11]) it was 11.8 µM; in assay [4] (setting [11]), no less than 78.1 µM; in [5] (setting [11]) it was 27.4 nM; in assay [6] (setting [11]), 0.0288 µM.

With CMLDGGNML, the Kd was 2.97 nM in [10] (source organism: Lassa virus Josiah) and no less than 20000 nM in [8] (setting [12]).

As to CWCNSTSTW, the values for the Kd in [2] (setting [13]) and in [5] (setting [13]) were 998 nM and 1250 nM, respectively.

In the case of CYSSVNDRLV, the Kd is 3.96 µM in assay [1] (setting [17]); 1870 nM in assay [2] (setting [17]); no less than 69.7 µM in assay [3] (setting [17]); 11.1 µM in assay [4] (setting [17]); 1130 nM in assay [5] (setting [17]); 13 µM in [6] (setting [17]).

DNPYKTWAY: in assay [3] (source organism: Dengue virus 1 Brazil/97-11/1997), the Kd worked out at 6.39 µM.

DVIPMVTQM: the Kd in assay [3] (source organism: Dengue virus 2 Peru/IQT2913/1996) stood at 0.0642 µM.

Turning to EDLIEWAME, the IC50 in assay [7] (source organism: Vaccinia virus) was no less than 94.7 µM.

With EFLTRNPAW, the dissociation constant Kd in assay [1] (setting [11]) is no less than 100 µM; in assay [2] (setting [11]), no less than 84500 nM; in assay [3] (setting [11]), no less than 69 µM; in assay [4] (setting [11]), no less than 78.1 µM; in assay [5] (setting [11]), no less than 84500 nM; in assay [6] (setting [11]), no less than 45.2 µM.

As to ENPYKTWAYH, the Kd in assay [3] (source organism: Dengue virus 3 Martinique/1243/1999) is no less than 34.1 µM.

EQYQQLREA showed an IC50 in assay [7] (setting [18]) of no less than 221 µM.

Consider ESQMLIPKSY, for which the equilibrium dissociation constant (Kd) in assay [1] (setting [19]) turned out to be 1.21 µM; in assay [4] (setting [19]), 8.37 µM.

In the case of EVKQDEDGSF, the Kd in assay [3] (setting [15]) was found to be 0.0692 µM.

For EYFMCFKYLL, the Kd in [2] (setting [20]) turned out to be 9.3 nM; in [5] (setting [20]), 192 nM; in assay [6] (setting [20]), 0.049 µM.

Consider FAHELEMLC, for which the results for the Kd in [8] (setting [14]) and in assay [9] (setting [14]) were 720 nM and 1170 nM, respectively.

FLHEDLEKL returned a Kd in assay [10] (source organism: unidentified) of 10 nM.

On to FMYEDALKS, for which the dissociation constant Kd was determined as 1360 nM in assay [8] (setting [21]) and 43.5 nM in [9] (setting [21]).

Take GTDLEGKFY: the Kd in [1] (setting [11]) was 1.39 µM; in [2] (setting [11]) it was no less than 77800 nM; in assay [3] (setting [11]), no less than 38.8 µM; in [4] (setting [11]), 0.0334 µM; in assay [5] (setting [11]), no less than 77600 nM; in [6] (setting [11]) it was 0.273 µM.

Take GVIHNSTLQ: the half-inhibitory concentration (IC50) in assay [7] (setting [18]) is no less than 121 µM.

GYATQTVGPW: the dissociation constant (Kd) in assay [2] (setting [15]) is 549 nM; in assay [5] (setting [15]), 1290 nM.

In the case of GYTMHANYI, the Kd in assay [1] (setting [11]) is no less than 78.9 µM; in [2] (setting [11]), 6960 nM; in assay [3] (setting [11]), no less than 77.9 µM; in assay [4] (setting [11]), no less than 78.1 µM; in assay [5] (setting [11]) it was 13500 nM; in [6] (setting [11]) it was no less than 88.2 µM.

Regarding GYVTHGFNL, the Kd in assay [1] (setting [11]) was no less than 78.9 µM; in assay [2] (setting [11]), 234 nM; in assay [3] (setting [11]), no less than 77.9 µM; in assay [4] (setting [11]), no less than 78.1 µM; in [5] (setting [11]), 1210 nM; in assay [6] (setting [11]) it was 0.839 µM.

Regarding GYVVSNFEGV, the dissociation constant Kd in [1] (setting [20]) is no less than 69.7 µM; in [2] (setting [20]), no less than 70000 nM; in [3] (setting [20]), no less than 69.7 µM; in assay [4] (setting [20]), no less than 70.4 µM; in assay [5] (setting [20]), no less than 70300 nM; in assay [6] (setting [20]), no less than 70.8 µM.
